Target: His-Bub3 (recombinant full-length Bub3) (mouse, UniProt Q9WVA3 1-326)
Experiment: pull-down

Chain of His-Bub3 (recombinant full-length Bub3) (Q9WVA3 whole entry): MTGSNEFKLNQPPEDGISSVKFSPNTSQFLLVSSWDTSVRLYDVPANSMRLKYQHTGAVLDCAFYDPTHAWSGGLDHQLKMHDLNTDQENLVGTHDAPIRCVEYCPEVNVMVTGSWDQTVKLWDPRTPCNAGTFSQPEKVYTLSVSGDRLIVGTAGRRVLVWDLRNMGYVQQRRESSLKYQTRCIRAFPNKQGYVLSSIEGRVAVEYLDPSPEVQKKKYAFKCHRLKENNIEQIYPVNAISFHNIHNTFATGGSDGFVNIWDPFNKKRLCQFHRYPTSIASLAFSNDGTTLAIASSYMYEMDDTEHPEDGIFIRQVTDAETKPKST

- binding result: binds
Binder: MTSRFGKTYSRKGGNGSSKFDEVFSNKRTTLSTKWGETTFMAKLGQKRPN (domain or fragment, mouse, UniProt Q65Z40 1-50, looked up) [GST-Wapl(1-50)]
